One experiment deals with Mab Select SuRe Ligand. The experiment in a line: SPR (Biacore T200), SuRe ligand on CM5 chip, antibody 5 ug/mL.
Experiment [1] has as its target extracellular matrix (BD Matrigel). As to the kind of experiment: ECL on Matrigel-coated plate, relative to MRAH-G1d/MRAL-k0.

The record followed here is patent publication US20210388110A1.

B1: TR01H101-E2702GsKsc/L0011-k0 (antibody, human IgG4 S228P, kappa, N297A, V domains shown)
VH: QVQLVESGGGLVQPGRSLRLSCAASGFTFSNAWMHWVRQAPGKGLEWVAQIKDKSQNYAVYYAESVKGRFTISRDDSKNSLYLQMNSLKTEDTAVYYCRYVHYAAGYGVDAWGQGTTVTVSS
VL: DIVMTQSPLSLPVTPGEPASISCRSSQPLVHSNRNTYLHWYQQKPGQAPRLLIYKVSNRFSGVPDRFSGSGSGTDFTLKISRVEAEDVGVYYCGQGTQVPYTFGQGTKLEIKR
For B1, the SuRe binding (RU) in the experiment with Mab Select SuRe Ligand came out at 0.5 RU.

B2: TR01H097-E2702GsKsc/L0011-k0 (antibody, human IgG4 S228P, kappa, N297A, V domains shown)
VH: QVQLVESGGGLVQPGRSLRLSCAASGFTFSNAWMHWVRQAPGKGLEWVAQIKDKSQNYALYYAESVKGRFTISRDDSKNSLYLQMNSLKTEDTAVYYCRYVHYAAGYGVDAWGQGTTVTVSS
VL: DIVMTQSPLSLPVTPGEPASISCRSSQPLVHSNRNTYLHWYQQKPGQAPRLLIYKVSNRFSGVPDRFSGSGSGTDFTLKISRVEAEDVGVYYCGQGTQVPYTFGQGTKLEIKR
For B2, the SuRe binding (RU) with Mab Select SuRe Ligand came to 0.1 RU.

B3: TR01H106-E2702GsKsc/L0011-k0 (antibody, human IgG4 S228P, kappa, N297A, V domains shown)
VH: QVQLVESGGGLVQPGRSLRLSCAASGFTFSNAWMHWVRQAPGKGLEWVAQIKDKSQNYATYPAESVKGRFTISRDDSKNSLYLQMNSLKTEDTAVYYCRYVHYAAGYGVDAWGQGTTVTVSS
VL: DIVMTQSPLSLPVTPGEPASISCRSSQPLVHSNRNTYLHWYQQKPGQAPRLLIYKVSNRFSGVPDRFSGSGSGTDFTLKISRVEAEDVGVYYCGQGTQVPYTFGQGTKLEIKR
For B3, in the experiment with Mab Select SuRe Ligand, the SuRe binding (RU) amounted to 0 RU.

B4: TR01H108-E2702GsKsc/L0011-k0 (antibody, human IgG4 S228P, kappa, N297A, V domains shown)
VH: QVQLVESGGGLVQPGRSLRLSCAASGFTFSNAWMHWVRQAPGKGLEWVAQIKDKSQNYATYTAESVKGRFTISRDDSKNSLYLQMNSLKTEDTAVYYCRYVHYAAGYGVDAWGQGTTVTVSS
VL: DIVMTQSPLSLPVTPGEPASISCRSSQPLVHSNRNTYLHWYQQKPGQAPRLLIYKVSNRFSGVPDRFSGSGSGTDFTLKISRVEAEDVGVYYCGQGTQVPYTFGQGTKLEIKR
With B4, in the experiment with Mab Select SuRe Ligand, the SuRe binding (RU) was 0.4 RU.

B5: TR01H095-E2702GsKsc/L0011-k0 (antibody, human IgG4 S228P, kappa, N297A, V domains shown)
VH: QVQLVESGGGLVQPGRSLRLSCAASGFTFSNAWMHWVRQAPGKGLEWVAQIKDKSQNYAFYYAESVKGRFTISRDDSKNSLYLQMNSLKTEDTAVYYCRYVHYAAGYGVDAWGQGTTVTVSS
VL: DIVMTQSPLSLPVTPGEPASISCRSSQPLVHSNRNTYLHWYQQKPGQAPRLLIYKVSNRFSGVPDRFSGSGSGTDFTLKISRVEAEDVGVYYCGQGTQVPYTFGQGTKLEIKR
The molecule B5 returned a SuRe binding (RU) with Mab Select SuRe Ligand of -0.2 RU.

B6: TR01H040-E2702GsKsc/H0610-E2704sEpsc/L0208-k0 (bispecific antibody, human IgG4 S228P, kappa, N297A)
heavy 1: QVQLVESGGGLVQPGRSLRLSCAASGFTFSNAWMHWVRQAPGKGLEWVAQIKDKSQNYATYYAESVKGRFTISRADSKNSIYLQMNSLKTEDTAVYYCRYVHYSASYGVDAWGQGTTVTVSSASTKGPSVFPLAPCSRSTSESTAALGCLVKDYFPEPVTVSWNSGALTSGVHTFPAVLQSSGLYSLSSVVTVPSSSLGTKTYTCNVDHKPSNTKVDKRVESKYGPPCPPCPAPEFRGGPKVFLFPPKPKDTLMISRTPEVTCVVVDVSQEDPEVQFNWYVDGVEVHNAKTKPREEQFASTYRVVSVLTVLHQDWLNGKEYKCKVSNKGLPSSIEKTISKAKGQPREPQVYTLPPSQKEMTKNQVSLTCLVKGFYPSDIAVEWESNGQPENNYKTTPPVLDSDGSFFLYSKLTVDKSRWQEGNVFSCSVMHEALHNRYTQKSLSLSP
heavy 2: QVQLVQSGAEVKKPGASVKVSCKASGYTFTDYEMHWIRQPPGQGLEWIGAIDGKTPDTAYSQKFKGRVTLTADKSTSTAYMELSSLTSEDTAVYYCTRFYSYTYWGQGTLVTVSSASTKGPSVFPLAPCSRSTSESTAALGCLVKDYFPEPVTVSWNSGALTSGVHTFPAVLQSSGLYSLSSVVTVPSSSLGTQTYTCNVDHKPSNTKVDKRVESKYGPPCPPCPAPEFRGGPKVFLFPPKPKDTLMISRTPEVTCVVVDVSQEDPEVQFNWYVDGVEVHNAKTKPREEQFASTYRVVSVLTVLHQDWLNGKEYKCKVSNKGLPSSIEKTISKAKGQPREPQVYTLPPSQEEMTKNQVSLTCLVKGFYPSDIAVEWESNGQPENNYKTTPPVLDSDGSFFLYSKLTVDKSRWQEGNVFSCSVMHEALHNHYTQESLSLSP
light: DIVMTQSPLSLPVTPGEPASISCRSSQSPVHSNRNTYLHWYQQKPGQAPRLLIYKVSNRFWGVPDRFSGSGSGTDFTLKISRVEAEDVGVYYCYQGTQVPYTFGQGTKLEIKRTVAAPSVFIFPPSDEQLKSGTASVVCLLNNFYPREAKVQWKVDNALQSGNSQESVTEQDSKDSTYSLSSTLTLSKADYEKHKVYACEVTHQGLSSPVTKSFNRGEC
As to B6, the ECM binding ratio (standard = 1) in experiment [1] came out at 50.4.

B7: TR01H040-E2702GsKsc/H0610-E2704sEpsc/L0211-k0 (bispecific antibody, human IgG4 S228P, kappa, N297A)
heavy 1: QVQLVESGGGLVQPGRSLRLSCAASGFTFSNAWMHWVRQAPGKGLEWVAQIKDKSQNYATYYAESVKGRFTISRADSKNSIYLQMNSLKTEDTAVYYCRYVHYSASYGVDAWGQGTTVTVSSASTKGPSVFPLAPCSRSTSESTAALGCLVKDYFPEPVTVSWNSGALTSGVHTFPAVLQSSGLYSLSSVVTVPSSSLGTKTYTCNVDHKPSNTKVDKRVESKYGPPCPPCPAPEFRGGPKVFLFPPKPKDTLMISRTPEVTCVVVDVSQEDPEVQFNWYVDGVEVHNAKTKPREEQFASTYRVVSVLTVLHQDWLNGKEYKCKVSNKGLPSSIEKTISKAKGQPREPQVYTLPPSQKEMTKNQVSLTCLVKGFYPSDIAVEWESNGQPENNYKTTPPVLDSDGSFFLYSKLTVDKSRWQEGNVFSCSVMHEALHNRYTQKSLSLSP
heavy 2: QVQLVQSGAEVKKPGASVKVSCKASGYTFTDYEMHWIRQPPGQGLEWIGAIDGKTPDTAYSQKFKGRVTLTADKSTSTAYMELSSLTSEDTAVYYCTRFYSYTYWGQGTLVTVSSASTKGPSVFPLAPCSRSTSESTAALGCLVKDYFPEPVTVSWNSGALTSGVHTFPAVLQSSGLYSLSSVVTVPSSSLGTQTYTCNVDHKPSNTKVDKRVESKYGPPCPPCPAPEFRGGPKVFLFPPKPKDTLMISRTPEVTCVVVDVSQEDPEVQFNWYVDGVEVHNAKTKPREEQFASTYRVVSVLTVLHQDWLNGKEYKCKVSNKGLPSSIEKTISKAKGQPREPQVYTLPPSQEEMTKNQVSLTCLVKGFYPSDIAVEWESNGQPENNYKTTPPVLDSDGSFFLYSKLTVDKSRWQEGNVFSCSVMHEALHNHYTQESLSLSP
light: DIVMTQSPLSLPVTPGEPASISCRSSQPPVHSNRNTYLHWYQQKPGQAPRLLIYKVSNRFSGVPDRFSGSGSGTDFTLKISRVEAEDVGVYYCYQGTQVPYTFGQGTKLEIKRTVAAPSVFIFPPSDEQLKSGTASVVCLLNNFYPREAKVQWKVDNALQSGNSQESVTEQDSKDSTYSLSSTLTLSKADYEKHKVYACEVTHQGLSSPVTKSFNRGEC
For the molecule B7, the ECM binding ratio (standard = 1) in experiment [1] stood at 15.5.
